For assay [1], the target named is T1, human CD103 (integrin Alpha-E) / human integrin Beta-7 heterodimer on cells (human, UniProt P38570 19-1179; P26010 20-798).
T1 construct: the assay field tells which cells; also called hCD103/hBeta7; CHO.K1-hCD103/hBeta7
Description: flow cytometry competition on CD103+CD8+ T cells; pre-incubation with unlabeled MCA708 (f4); table n=2. As for the experimental part: (§1) Percentage binding of fluorescently labeled mAbs was determined using flow cytometry. Maximum binding was set at 100%.
(§2) Percentage binding of fluorescently labeled mAbs was determined using flow cytometry. Maximum binding was set at 100%
Background: Flow cytometry measures light scatter and fluorescence of single cells or particles in a stream.

The target of assay [2] is T1, human CD103 (integrin Alpha-E) / human …. Description: flow cytometry competition on CD103+CD8+ T cells; pre-incubation with unlabeled 06A; table n=1. On the procedure:
as §1, §2

For assay [3] the target is unchanged. Kind of assay: flow cytometry competition on CD103+CD8+ T cells; pre-incubation with unlabeled MCA708 (f4); table n=1. On the procedure:
as §1, §2

Assay [4] shares this target. Kind of assay: flow cytometry competition on CD103+CD8+ T cells; pre-incubation with unlabeled 03A; table n=2. On the procedure:
as §1, §2

Assay [5] shares this target. Description: flow cytometry competition on CD103+CD8+ T cells; pre-incubation with unlabeled IgG (f2); table n=2. On the procedure:
as §1, §2

Assay [6] shares this target. Description: cell ELISA on CHO.K1-humanCD103/beta7 cells, abs 450-610. (An ELISA detects its analyte on a solid surface through an enzyme-linked reagent.)
The next assay deals with T2, CHO.K1-rhesusCD103/beta7.
T2 construct: also called CHO.K1-rhCD103/rhBeta7; CHO-K1.rhCD103/rhBeta7
T2 alpha chain (rhesus integrin Alpha-E, CD103): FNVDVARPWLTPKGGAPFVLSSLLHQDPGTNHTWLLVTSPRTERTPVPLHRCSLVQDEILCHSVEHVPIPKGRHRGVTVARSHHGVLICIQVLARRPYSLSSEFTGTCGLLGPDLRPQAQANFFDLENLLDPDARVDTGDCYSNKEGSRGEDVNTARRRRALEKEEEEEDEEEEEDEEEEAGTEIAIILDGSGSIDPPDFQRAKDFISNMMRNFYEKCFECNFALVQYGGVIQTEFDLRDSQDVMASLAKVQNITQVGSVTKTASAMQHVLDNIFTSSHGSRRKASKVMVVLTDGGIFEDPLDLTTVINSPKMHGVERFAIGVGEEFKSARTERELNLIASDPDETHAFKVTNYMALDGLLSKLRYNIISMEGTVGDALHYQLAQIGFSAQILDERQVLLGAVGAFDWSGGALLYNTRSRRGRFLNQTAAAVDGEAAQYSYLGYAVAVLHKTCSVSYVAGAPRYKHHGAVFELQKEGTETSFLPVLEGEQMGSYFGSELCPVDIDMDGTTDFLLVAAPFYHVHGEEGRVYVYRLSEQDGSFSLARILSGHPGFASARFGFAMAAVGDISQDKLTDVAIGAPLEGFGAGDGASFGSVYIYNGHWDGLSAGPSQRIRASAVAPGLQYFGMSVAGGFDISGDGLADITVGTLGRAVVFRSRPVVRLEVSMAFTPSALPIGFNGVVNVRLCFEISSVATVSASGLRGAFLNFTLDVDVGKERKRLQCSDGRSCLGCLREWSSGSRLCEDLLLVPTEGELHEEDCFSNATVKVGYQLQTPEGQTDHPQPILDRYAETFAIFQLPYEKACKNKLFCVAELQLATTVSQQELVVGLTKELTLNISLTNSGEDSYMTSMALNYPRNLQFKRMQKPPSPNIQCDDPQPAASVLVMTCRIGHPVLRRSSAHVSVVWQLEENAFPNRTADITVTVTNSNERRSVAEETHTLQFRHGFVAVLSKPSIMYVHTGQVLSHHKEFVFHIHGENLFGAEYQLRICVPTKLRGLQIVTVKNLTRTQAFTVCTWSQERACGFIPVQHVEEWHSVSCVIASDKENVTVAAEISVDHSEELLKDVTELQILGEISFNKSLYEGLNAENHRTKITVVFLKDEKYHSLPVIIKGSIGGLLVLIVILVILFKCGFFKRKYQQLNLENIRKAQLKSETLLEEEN
T2 beta chain (rhesus integrin Beta-7): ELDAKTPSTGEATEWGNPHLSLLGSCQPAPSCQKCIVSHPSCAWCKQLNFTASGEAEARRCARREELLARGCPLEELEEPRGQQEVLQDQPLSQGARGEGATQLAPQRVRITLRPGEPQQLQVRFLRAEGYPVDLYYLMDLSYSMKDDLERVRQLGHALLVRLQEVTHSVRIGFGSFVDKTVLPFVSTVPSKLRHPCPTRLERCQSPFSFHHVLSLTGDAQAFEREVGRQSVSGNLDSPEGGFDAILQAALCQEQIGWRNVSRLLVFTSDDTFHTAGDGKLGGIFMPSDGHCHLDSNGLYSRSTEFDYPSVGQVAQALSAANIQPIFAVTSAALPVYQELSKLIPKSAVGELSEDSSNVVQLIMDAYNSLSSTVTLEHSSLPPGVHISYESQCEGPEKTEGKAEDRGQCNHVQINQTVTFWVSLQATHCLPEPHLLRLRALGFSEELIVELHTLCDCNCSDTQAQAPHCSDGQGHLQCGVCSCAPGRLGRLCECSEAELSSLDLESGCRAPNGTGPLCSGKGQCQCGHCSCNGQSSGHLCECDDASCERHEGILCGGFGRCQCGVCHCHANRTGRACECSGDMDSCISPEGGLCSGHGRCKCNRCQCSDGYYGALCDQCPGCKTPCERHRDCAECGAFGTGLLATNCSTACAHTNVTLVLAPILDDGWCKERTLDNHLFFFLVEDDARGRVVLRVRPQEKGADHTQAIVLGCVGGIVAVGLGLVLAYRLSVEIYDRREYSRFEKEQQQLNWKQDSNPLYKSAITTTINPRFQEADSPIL
Kind of assay: cell ELISA on CHO.K1-rhesusCD103/beta7 cells, abs 450-610.

T1 sequence (P38570 19-1179 limits assumed, chain 1 of 2): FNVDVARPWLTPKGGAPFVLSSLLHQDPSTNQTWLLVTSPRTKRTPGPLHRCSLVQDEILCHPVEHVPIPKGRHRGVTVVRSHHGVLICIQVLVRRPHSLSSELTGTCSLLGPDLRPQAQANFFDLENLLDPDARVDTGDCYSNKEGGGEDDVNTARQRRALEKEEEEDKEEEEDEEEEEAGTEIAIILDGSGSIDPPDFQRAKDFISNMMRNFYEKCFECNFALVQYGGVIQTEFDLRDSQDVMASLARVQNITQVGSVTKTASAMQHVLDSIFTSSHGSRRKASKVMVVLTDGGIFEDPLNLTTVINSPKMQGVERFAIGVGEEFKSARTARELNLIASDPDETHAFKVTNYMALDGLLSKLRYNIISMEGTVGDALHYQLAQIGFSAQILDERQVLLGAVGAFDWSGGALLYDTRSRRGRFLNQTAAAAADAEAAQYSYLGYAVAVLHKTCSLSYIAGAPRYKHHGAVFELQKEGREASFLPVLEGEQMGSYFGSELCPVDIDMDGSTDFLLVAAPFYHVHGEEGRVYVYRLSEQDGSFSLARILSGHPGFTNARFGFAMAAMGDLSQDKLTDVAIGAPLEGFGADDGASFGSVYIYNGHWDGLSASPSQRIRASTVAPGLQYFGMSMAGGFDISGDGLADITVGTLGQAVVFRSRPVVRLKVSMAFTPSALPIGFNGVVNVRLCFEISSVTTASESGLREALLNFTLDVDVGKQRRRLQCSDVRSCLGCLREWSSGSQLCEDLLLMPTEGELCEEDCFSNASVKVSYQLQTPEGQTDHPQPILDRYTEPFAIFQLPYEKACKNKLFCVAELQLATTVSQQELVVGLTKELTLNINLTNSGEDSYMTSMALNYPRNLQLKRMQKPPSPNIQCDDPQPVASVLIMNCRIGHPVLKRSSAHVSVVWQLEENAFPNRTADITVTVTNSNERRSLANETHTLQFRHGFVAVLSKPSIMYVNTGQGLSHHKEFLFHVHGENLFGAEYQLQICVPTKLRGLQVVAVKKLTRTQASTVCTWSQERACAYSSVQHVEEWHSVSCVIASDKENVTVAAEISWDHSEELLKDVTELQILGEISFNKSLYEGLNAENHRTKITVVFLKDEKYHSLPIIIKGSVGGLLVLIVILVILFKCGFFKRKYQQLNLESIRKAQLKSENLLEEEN
T1 sequence (P26010 20-798 limits assumed, chain 2 of 2): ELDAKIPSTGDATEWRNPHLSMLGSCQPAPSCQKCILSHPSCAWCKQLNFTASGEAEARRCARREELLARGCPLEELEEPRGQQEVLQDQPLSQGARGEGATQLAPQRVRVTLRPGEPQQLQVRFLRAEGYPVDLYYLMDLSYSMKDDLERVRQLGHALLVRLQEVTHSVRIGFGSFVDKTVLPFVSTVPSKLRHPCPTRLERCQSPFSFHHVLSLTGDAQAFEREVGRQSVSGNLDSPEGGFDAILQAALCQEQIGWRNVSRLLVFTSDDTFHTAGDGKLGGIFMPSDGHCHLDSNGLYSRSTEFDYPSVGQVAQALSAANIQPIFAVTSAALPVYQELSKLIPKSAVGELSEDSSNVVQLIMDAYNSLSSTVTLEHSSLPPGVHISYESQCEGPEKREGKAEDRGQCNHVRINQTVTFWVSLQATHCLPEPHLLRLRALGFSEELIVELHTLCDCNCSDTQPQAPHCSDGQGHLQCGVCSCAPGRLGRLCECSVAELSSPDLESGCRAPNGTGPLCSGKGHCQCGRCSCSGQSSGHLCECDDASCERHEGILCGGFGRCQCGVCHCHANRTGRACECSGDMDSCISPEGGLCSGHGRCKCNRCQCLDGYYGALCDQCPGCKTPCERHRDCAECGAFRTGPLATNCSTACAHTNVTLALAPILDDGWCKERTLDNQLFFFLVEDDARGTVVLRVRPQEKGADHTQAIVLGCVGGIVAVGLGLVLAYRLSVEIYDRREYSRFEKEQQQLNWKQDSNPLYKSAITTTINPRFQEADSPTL

B1: hCD103.05A (antibody, mouse IgG1, V domains shown)
VH: EVQLQQSGPELEKPGASAKISCKASGYSFTGYNMNWVKQSNGKSLEWIGNIDPYYGGTSYNQKFKGKATLTVDKSSSTAYMQLKSLTSEDSAVYYCARSFYGYDAGSPYNYAMDYWGQGTPVTVSP
VL: DIVMTQSHKFMSTSVGDRVSITCKASQDVGTFVAWYQQKPGQSPKLLIYWASTRHTGVPDRFTGSGSGTDFTLTISNVQSEDLADYFCHQYSSYPYTFGGGTQLEIK
notes: Also tested labelled with AF647, conjugated with Df and labelled with 89Zr; these are written under this molecule; also called clone 05A; hCD103.05 mAb
As for B1, the “% binding of the fluorescently labeled mAb (IgG pre-incubation = 100)” value (shortened to “% binding”) in assay [1] came to 89.7%; in assay [2] it was 101%; in assay [3] it was 94.6%; in assay [4], 90.9%; in assay [5], 100%.

B2: hCD103.06A (antibody, mouse IgG1, V domains shown)
VH: QVQLQQPGSELVRPGASVKLSCKASGYTFTSYWMHWVKQRHGQGLEWIGNIYPGSGSTNYDEKFKSKGTLTVDTSSSTAYMHLSSLTSEDSAVYYCTRGVYDNPYYFDYWGQGTTLTVSS
VL: DIQMTQSSSNLSVSLGGRVTITCKASDHINNWLAWYQQKPGNAPRVLISGATSLETGVPSRFSGSGSGKDYTLSITSLQTEDVATYYCQQYWSIPLTFGAGTKLELK
notes: also called clone 06A; hCD103.06 mAb
Take B2: the half-maximal effective concentration (EC50 (read off the curve)) (commonly the concentration at which the effect is half-maximal) in assay [6] is around 0.04 µg/mL; with CHO.K1-rhesusCD103/beta7, around 0.05 µg/mL. The “% binding” value in assay [1] was found to be 1%; in assay [2], 18.7%; in assay [3], 0.7%; in assay [4] it was 108%; in assay [5] it was 100%.

B3: hCD103.07A (antibody, mouse IgG1, V domains shown)
VH: EVQLQESGPSLVKPSQTLSLTCSVTGDSITSGYWNWIRKFPGNKLEYMGYITYSGSTYYNPSLKSRISITRDTSKNQYYLQLNSVTTEDTATYYCARNYYGSSSMDYWGQGTSVTVSS
VL: DIVMTQSQKFMSTSVADRVSVTCKASQNVGSDVAWYQQKPGQSPKSLIYSASYRYSGVPDRFTGSGSGTDFTLTISNVQSEDLAEYFCQQYNSYPSTFGGGTKLEIK
notes: also called clone 07A
Regarding B3, the “EC50 (read off the curve)” value in assay [6] was around 0.01 µg/mL; in the assay with CHO.K1-rhesusCD103/beta7, around 0.02 µg/mL. Also, the “% binding” value in assay [1] was 92.5%; in assay [2] it was 73.2%; in assay [3], 92%; in assay [4], 77.8%; in assay [5] it was 100%.

B4: hCD103.01A (antibody, V domains shown)
VH: EVQLQESGPSLVKPSQTLSLTCSVTGDSITSGYWNWIRKFPGNKLEYMGYITYSGSTYYNPSLKSRISITRDTSKNQYYLQLNSVTTEDTATYYCTRHYYGSDAMDYWGQGTSVTVSS
VL: DIVMTQSHKFMSTSVGDRVSITCKASQDVSIAVAWYQQRPGQSPKLLIYSASYRYTGVPDRFTGSGSGTDFTFTISSVQAEDLAVYYCQQHYSTPWTFGGGTKLEIK
notes: Also tested labelled with AF647, conjugated with Df and labelled with 89Zr; these are written under this molecule; also called clone 01A; hCD103.01 mAb
In the case of B4, the “EC50 (read off the curve)” value was around 0.02 µg/mL in assay [6] and around 0.05 µg/mL with CHO.K1-rhesusCD103/beta7. The “% binding” value in assay [1] stood at 92.3%; in assay [2], 81.8%; in assay [3] it was 83.9%; in assay [4], 97.3%; in assay [5], 100%.

For the origin of these results see US20230183354A1 (IMMIOS HOLDING B V, published 2023).
